Measured values as given in US20230303994.

B1: porcine trypsin variant no. 105 (SEQ ID NO: 105) (protein)
chain: IVGGYTCAANSIPYQVSLNSGSHRCGGSLINSQWVVSAAHCYKSRIQVRLGEHNIHVLEGNEQFINAAKIITHPNFNPNTLDNDIMLIKLSSPATLNSNVATVSLPTSCAAAGTECLISGWGNTASSGSSYPSLLQCLKAPVLSDSSCKSSYPGQITGNMICVGFLEGGADACQGDSGGPVVCNGQLQGIVSSGYGCAQKNKPGVYTKVCNYVNWIQQTIAAN
Q: Which results are given for B1?
A: Activity PPI cleavage (pre-pro-human insulin): yes; Selectivity (pre-pro-human insulin): >90%; Purity Insulin Glargine (pre-pro-insulin glargine): 88.9 area %; Yield (pre-pro-insulin glargine): > 90%; desArg (pre-pro-insulin glargine): 1 area %; desThr (pre-pro-insulin glargine): 0.9 area %

B2: trypsin variant SEQ ID NO: 106 (protein)
chain: IVGGYTCAANSIPYQVSLNSGSHRCGGSLINSQWVVSAAHCYKSRIQVRLGEHNIHVLEGNEQFINAAKIITHPNFNPNTLDNDIMLIKLSSPATLNSAVATVSLPTSCAAAGTECLISGWGNTCSSGSSMPSLLQCLKAPVLSDSSCKSSYPGQITGNMICVGFLEGGADACQGDSGGPVVCNGQLQGIVSSGYGCAQKNKPGVYTKVCNYVNWIQQTIAAN
Q: Which “Activity PPI cleavage” value (pre-pro-human insulin) does the source give for B2 here?
A: Its value is “yes”.

Q: And the Selectivity (pre-pro-human insulin)?
A: The Selectivity was over 90%.

Q: What about the Purity Insulin Glargine (pre-pro-insulin glargine) of the same protein?
A: Its Purity Insulin Glargine is 86.8 area %.

Q: And the Yield (pre-pro-insulin glargine)?
A: Its Yield is over 90%.

Q: What about the desArg (pre-pro-insulin glargine) of the same protein?
A: Its desArg is 0.7 area %.

Q: And the desThr (pre-pro-insulin glargine)?
A: The desThr was 1 area %.

B3: trypsin variant SEQ ID NO: 108 (protein)
chain: IVGGYTCAANSIPYQVSLNSGSHRCGGSLINSQWVVSAAHCYKPRIQVRLGEHNIDVLEGNEQFINAAKIITHPNFNPNTLDNDIMLIKLSSPATLNSAVATVSLPTSCAAAGTECLISGWGNTCSSGSSMPSLLQCLKAPVLSDSSCKSSYPGQITGNMICVGFLEGGADACQGDSGGPVVCNGQLQGIVSSGYGCAQKNKPGVYTKVCNYVNWIQQTIAAN
Q: Which “Activity PPI cleavage” value (pre-pro-human insulin) does the source give for B3 here?
A: Its value is “yes”.

Q: What about the Selectivity (pre-pro-human insulin) of the same protein?
A: Its Selectivity is over 80%.

Q: What about the Purity Insulin Glargine (pre-pro-insulin glargine) of the same protein?
A: Its Purity Insulin Glargine is 88.8 area %.

Q: What about the Yield (pre-pro-insulin glargine) of the same protein?
A: The Yield was over 90%.

Q: And the desArg (pre-pro-insulin glargine)?
A: The desArg was 0.8 area %.

Q: And the desThr (pre-pro-insulin glargine)?
A: The desThr was 0.7 area %.

B4: trypsin variant SEQ ID NO: 110 (protein)
chain: IVGGYTCAANSIPYQVSLNSGSHRCGGSLINSQWVVSAAHCYKSRIQVRLGEHNIHVLEGNEQFINAAKIITHPNFNPNTLDNDIMLIKLSSPATLNSHVATVSLPRSCAAAGTECLISGWGNTCSSGSSMPSLLQCLKAPVLSDSSCKSSYPGQITGNMICVGFLEGGADACQGDSGGPVVCNGQLQGIVSSGYGCAQKNKPGVYTKVCNYVNWIQQTIAAN
Q: Which “Activity PPI cleavage” value (pre-pro-human insulin) does the source give for B4 here?
A: Its value is “yes”.

Q: What about the Selectivity (pre-pro-human insulin) of the same protein?
A: Its Selectivity is over 90%.

Q: And the Purity Insulin Glargine (pre-pro-insulin glargine)?
A: Its Purity Insulin Glargine is 90.6 area %.

Q: What about the Yield (pre-pro-insulin glargine) of the same protein?
A: The Yield was over 90%.

Q: And the desArg (pre-pro-insulin glargine)?
A: Its desArg is 0.9 area %.

Q: And the desThr (pre-pro-insulin glargine)?
A: The desThr was 0.6 area %.

B5: trypsin variant SEQ ID NO: 109 (protein)
chain: IVGGYTCAANSIPYQVSLNSGSHRCGGSLINSQWVVSAAHCYKSRIQVRLGEHNIHVLEGNEQFINAAKIITHPNFNGNTLDNDIMLIKLSSPATLNSNVATVSLPTSCAAAGTECLISGWGNTCSSGSSMPSLLQCLKAPVLSDSSCKSSYPGQITGNMICVGFLEGGADACQGDSGGPVVCNGQLQGIVSSGYGCAQKNKPGVYTKVCNYVNWIQQTIAAN
Q: How did the “Activity PPI cleavage” value (pre-pro-human insulin) turn out when B5 was run?
A: Its value is “yes”.

Q: And the Selectivity (pre-pro-human insulin)?
A: The Selectivity was over 90%.

Q: What about the Purity Insulin Glargine (pre-pro-insulin glargine) of the same protein?
A: Its Purity Insulin Glargine is 85.9 area %.

Q: What about the Yield (pre-pro-insulin glargine) of the same protein?
A: The Yield was over 80%.

Q: And the desArg (pre-pro-insulin glargine)?
A: The desArg was 0.7 area %.

Q: What about the desThr (pre-pro-insulin glargine) of the same protein?
A: Its desThr is 0.5 area %.

B6: trypsin variant SEQ ID NO: 107 (protein)
chain: IVGGYTCAANSIPYQVSLNSGSHRCGGSLINSQWVVSAAHCYKPRIQVRLGEHNIHVLEGNEQFINAAKIITHPNFNPNTLDNDIMLIKLSSPATLNSHVATVSLPTSCAAAGTECLISGWGNTCSSGSSMPSLLQCLKAPVLSDSSCKSSYPGQITGNMICVGFLEGGADACQGDSGGPVVCNGQLQGIVSSGYGCAQKNKPGVYTKVCNYVNWIQQTIAAN
Q: Which “Activity PPI cleavage” value (pre-pro-human insulin) does the source give for B6 here?
A: The value was “yes”.

Q: And the Selectivity (pre-pro-human insulin)?
A: Its Selectivity is over 90%.

Q: What about the Purity Insulin Glargine (pre-pro-insulin glargine) of the same protein?
A: The Purity Insulin Glargine was 88.1 area %.

Q: And the Yield (pre-pro-insulin glargine)?
A: The Yield was over 90%.

Q: What about the desArg (pre-pro-insulin glargine) of the same protein?
A: The desArg was 0.4 area %.

Q: And the desThr (pre-pro-insulin glargine)?
A: The desThr was 1.3 area %.
